B1: GpH7-A5/GpH7-B3 variant A327_18N/GpL16-k0 (antibody, human IgG1, kappa)
heavy 1: not shown
heavy 2: not shown
light: DIVMTQSPLSLPVTPGEPASISCQASESLVHSNRNTYLHWYLQKPGQSPQLLIYKVSNRFSGVPDRFSGSGSGTDFTLKISRVEAEDVGVYYCSQNTHVPPTFGQGTKVEIERTVAAPSVFIFPPSDEQLKSGTASVVCLLNNFYPREAKVQWKVDNALQSGNSQESVTEQDSKDSTYSLSSTLTLSKADYEKHKVYACEVTHQGLSSPVTKSFNRGEC
notes: Heterodimerized anti-glypican-3 IgG1; mutation in the GpH7-B3 chain only; also called He Ab
B2: GpH7-A5/GpH7-B3 variant S239_09D/GpL16-k0 (antibody, human IgG1, kappa)
heavy 1: not shown
heavy 2: not shown
light: B1 light
notes: as for B1
B3: GpH7-A5/GpH7-B3 variant S267_02A/GpL16-k0 (antibody, human IgG1, kappa)
heavy 1: not shown
heavy 2: not shown
light: B1 light
notes: as for B1
B4: GpH7-A5/GpH7-B3 variant K326_08L/GpL16-k0 (antibody, human IgG1, kappa)
heavy 1: not shown
heavy 2: not shown
light: B1 light
notes: as for B1
B5: GpH7-A5/GpH7-B3 variant P238_10E/GpL16-k0 (antibody, human IgG1, kappa)
heavy 1: not shown
heavy 2: not shown
light: B1 light
notes: as for B1
B6: GpH7-A5/GpH7-B3 variant S267_04F/GpL16-k0 (antibody, human IgG1, kappa)
heavy 1: not shown
heavy 2: not shown
light: B1 light
notes: as for B1
B7: GpH7-A5/GpH7-B3 variant D270_05P/GpL16-k0 (antibody, human IgG1, kappa)
heavy 1: not shown
heavy 2: not shown
light: B1 light
notes: as for B1
B8: GpH7-A5/GpH7-B3 variant P238_15Y/GpL16-k0 (antibody, human IgG1, kappa)
heavy 1: not shown
heavy 2: not shown
light: B1 light
notes: as for B1
B9: GpH7-A5/GpH7-B3 variant L328_10E/GpL16-k0 (antibody, human IgG1, kappa)
heavy 1: not shown
heavy 2: not shown
light: B1 light
notes: as for B1
B10: GpH7-A5/GpH7-B3 variant G237_09D/GpL16-k0 (antibody, human IgG1, kappa)
heavy 1: not shown
heavy 2: not shown
light: B1 light
notes: as for B1
B11: GpH7-A5/GpH7-B3 variant L328_12R/GpL16-k0 (antibody, human IgG1, kappa)
heavy 1: not shown
heavy 2: not shown
light: B1 light
notes: as for B1
B12: GpH7-A5/GpH7-B3 variant N325_07I/GpL16-k0 (antibody, human IgG1, kappa)
heavy 1: not shown
heavy 2: not shown
light: B1 light
notes: as for B1
B13: GpH7-A5/GpH7-B3 variant S267_06M/GpL16-k0 (antibody, human IgG1, kappa)
heavy 1: not shown
heavy 2: not shown
light: B1 light
notes: as for B1
B14: GpH7-A5/GpH7-B3 variant S267_03V/GpL16-k0 (antibody, human IgG1, kappa)
heavy 1: not shown
heavy 2: not shown
light: B1 light
notes: as for B1
B15: GpH7-A5/GpH7-B3 variant H268_02A/GpL16-k0 (antibody, human IgG1, kappa)
heavy 1: not shown
heavy 2: not shown
light: B1 light
notes: as for B1
B16: GpH7-A5/GpH7-B3 variant L328_07I/GpL16-k0 (antibody, human IgG1, kappa)
heavy 1: not shown
heavy 2: not shown
light: B1 light
notes: as for B1
B17: GpH7-A5/GpH7-B3 variant L328_04F/GpL16-k0 (antibody, human IgG1, kappa)
heavy 1: not shown
heavy 2: not shown
light: B1 light
notes: as for B1
B18: GpH7-A5/GpH7-B3 variant P238_04F/GpL16-k0 (antibody, human IgG1, kappa)
heavy 1: not shown
heavy 2: not shown
light: B1 light
notes: as for B1
B19: GpH7-A5/GpH7-B3 variant N325_06M/GpL16-k0 (antibody, human IgG1, kappa)
heavy 1: not shown
heavy 2: not shown
light: B1 light
notes: as for B1
B20: GpH7-A5/GpH7-B3 variant S239_10E/GpL16-k0 (antibody, human IgG1, kappa)
heavy 1: not shown
heavy 2: not shown
light: B1 light
notes: as for B1
B21: GpH7-A5/GpH7-B3 variant K326_07I/GpL16-k0 (antibody, human IgG1, kappa)
heavy 1: not shown
heavy 2: not shown
light: B1 light
notes: as for B1
B22: GpH7-A5/GpH7-B3 variant H268_13S/GpL16-k0 (antibody, human IgG1, kappa)
heavy 1: not shown
heavy 2: not shown
light: B1 light
notes: as for B1
B23: GpH7-A5/GpH7-B3 variant P238_09D/GpL16-k0 (antibody, human IgG1, kappa)
heavy 1: not shown
heavy 2: not shown
light: B1 light
notes: as for B1
B24: GpH7-A5/GpH7-B3 variant H268_09D/GpL16-k0 (antibody, human IgG1, kappa)
heavy 1: not shown
heavy 2: not shown
light: B1 light
notes: as for B1
B25: GpH7-A5/GpH7-B3 variant N325_08L/GpL16-k0 (antibody, human IgG1, kappa)
heavy 1: not shown
heavy 2: not shown
light: B1 light
notes: as for B1
B26: GpH7-A5/GpH7-B3 variant K326_09D/GpL16-k0 (antibody, human IgG1, kappa)
heavy 1: not shown
heavy 2: not shown
light: B1 light
notes: as for B1
B27: GpH7-A5/GpH7-B3 variant P271_01G/GpL16-k0 (antibody, human IgG1, kappa)
heavy 1: not shown
heavy 2: not shown
light: B1 light
notes: as for B1
B28: GpH7-A5/GpH7-B3 variant P238_08L/GpL16-k0 (antibody, human IgG1, kappa)
heavy 1: not shown
heavy 2: not shown
light: B1 light
notes: as for B1
B29: GpH7-A5/GpH7-B3 variant L328_11K/GpL16-k0 (antibody, human IgG1, kappa)
heavy 1: not shown
heavy 2: not shown
light: B1 light
notes: as for B1
B30: GpH7-A5/GpH7-B3 variant H268_10E/GpL16-k0 (antibody, human IgG1, kappa)
heavy 1: not shown
heavy 2: not shown
light: B1 light
notes: as for B1
B31: GpH7-A5/GpH7-B3 variant L328_09D/GpL16-k0 (antibody, human IgG1, kappa)
heavy 1: not shown
heavy 2: not shown
light: B1 light
notes: as for B1
B32: GpH7-A5/GpH7-B3 variant N325_20W/GpL16-k0 (antibody, human IgG1, kappa)
heavy 1: not shown
heavy 2: not shown
light: B1 light
notes: as for B1
B33: GpH7-A5/GpH7-B3 variant K326_10E/GpL16-k0 (antibody, human IgG1, kappa)
heavy 1: not shown
heavy 2: not shown
light: B1 light
notes: as for B1
B34: GpH7-A5/GpH7-B3 variant G237_20W/GpL16-k0 (antibody, human IgG1, kappa)
heavy 1: not shown
heavy 2: not shown
light: B1 light
notes: as for B1
B35: GpH7-A5/GpH7-B3 variant G236_09D/GpL16-k0 (antibody, human IgG1, kappa)
heavy 1: not shown
heavy 2: not shown
light: B1 light
notes: as for B1

Target: T1, FcγRIIa R (human, UniProt P12318 34-217)
T1 construct: extracellular domain; also called FcgRIIa R type; 2aR; not shown: His tag at the C terminus
T1 sequence (looked up): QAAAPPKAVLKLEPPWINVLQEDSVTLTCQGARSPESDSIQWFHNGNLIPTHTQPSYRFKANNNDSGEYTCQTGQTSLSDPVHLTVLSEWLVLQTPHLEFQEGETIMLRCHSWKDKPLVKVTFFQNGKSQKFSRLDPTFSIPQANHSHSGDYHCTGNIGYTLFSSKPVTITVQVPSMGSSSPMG
Experiment: SPR, relative to GpH7-A5/GpH7-B3/GpL16-k0

Binder	He/Con_2aR
B1	88.9 control = 100
B2	137 control = 100
B3	155 control = 100
B4	137 control = 100
B5	151 control = 100
B6	37.8 control = 100
B7	7.5 control = 100
B8	156 control = 100
B9	105 control = 100
B10	156 control = 100
B11	5 control = 100
B12	133 control = 100
B13	122 control = 100
B14	116 control = 100
B15	133 control = 100
B16	124 control = 100
B17	138 control = 100
B18	174 control = 100

Binder	He/Con_2aR
B19	152 control = 100
B20	135 control = 100
B21	147 control = 100
B22	127 control = 100
B23	148 control = 100
B24	149 control = 100
B25	144 control = 100
B26	148 control = 100
B27	144 control = 100
B28	140 control = 100
B29	2.5 control = 100
B30	148 control = 100
B31	119 control = 100
B32	134 control = 100
B33	148 control = 100
B34	138 control = 100
B35	106 control = 100

Target: T2, FcγRIIb (human, UniProt P31994 43-217)
T2 construct: extracellular domain; also called FcgRIIb; 2b; not shown: His tag at the C terminus
T2 sequence (looked up): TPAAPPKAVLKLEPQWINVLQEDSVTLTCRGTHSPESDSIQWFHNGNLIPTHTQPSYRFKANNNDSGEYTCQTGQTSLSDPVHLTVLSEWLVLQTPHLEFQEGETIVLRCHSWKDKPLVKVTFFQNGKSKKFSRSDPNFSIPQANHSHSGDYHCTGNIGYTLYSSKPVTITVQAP
Experiment: SPR, relative to GpH7-A5/GpH7-B3/GpL16-k0

Binder	He/Con_2b
B1	113 control = 100
B2	206 control = 100
B3	243 control = 100
B4	177 control = 100
B5	232 control = 100
B6	48 control = 100
B7	13.9 control = 100
B8	218 control = 100
B9	172 control = 100
B10	223 control = 100
B11	9.2 control = 100
B12	171 control = 100
B13	210 control = 100
B14	192 control = 100
B15	167 control = 100
B16	160 control = 100
B17	219 control = 100
B18	312 control = 100

Binder	He/Con_2b
B19	217 control = 100
B20	181 control = 100
B21	199 control = 100
B22	160 control = 100
B23	221 control = 100
B24	239 control = 100
B25	197 control = 100
B26	193 control = 100
B27	193 control = 100
B28	204 control = 100
B29	7.5 control = 100
B30	230 control = 100
B31	199 control = 100
B32	169 control = 100
B33	200 control = 100
B34	193 control = 100
B35	167 control = 100

Target: T1, FcγRIIa R
Experiment: SPR; He/Con_2aR divided by He/Con_2b (FcγRIIa R over FcγRIIb)

Binder	He_2aR/2b
B1	0.79 ratio
B2	0.66 ratio
B3	0.64 ratio
B4	0.77 ratio
B5	0.65 ratio
B6	0.79 ratio
B7	0.54 ratio
B8	0.72 ratio
B9	0.61 ratio
B10	0.7 ratio
B11	0.54 ratio
B12	0.78 ratio
B13	0.58 ratio
B14	0.61 ratio
B15	0.8 ratio
B16	0.78 ratio
B17	0.63 ratio
B18	0.56 ratio

Binder	He_2aR/2b
B19	0.7 ratio
B20	0.75 ratio
B21	0.74 ratio
B22	0.8 ratio
B23	0.67 ratio
B24	0.62 ratio
B25	0.73 ratio
B26	0.77 ratio
B27	0.75 ratio
B28	0.68 ratio
B29	0.33 ratio
B30	0.64 ratio
B31	0.6 ratio
B32	0.79 ratio
B33	0.74 ratio
B34	0.71 ratio
B35	0.64 ratio

From patent US20150344570A1 (published 2015)
